1 molecule from article PMC7870818, “SPRTN protease-cleaved MRE11 decreases DNA repair and radiosensitises cancer cells” can be followed below.

One series has as its target T1, FL-MRE11 (human, UniProt P49959 1-708).
T1 sequence: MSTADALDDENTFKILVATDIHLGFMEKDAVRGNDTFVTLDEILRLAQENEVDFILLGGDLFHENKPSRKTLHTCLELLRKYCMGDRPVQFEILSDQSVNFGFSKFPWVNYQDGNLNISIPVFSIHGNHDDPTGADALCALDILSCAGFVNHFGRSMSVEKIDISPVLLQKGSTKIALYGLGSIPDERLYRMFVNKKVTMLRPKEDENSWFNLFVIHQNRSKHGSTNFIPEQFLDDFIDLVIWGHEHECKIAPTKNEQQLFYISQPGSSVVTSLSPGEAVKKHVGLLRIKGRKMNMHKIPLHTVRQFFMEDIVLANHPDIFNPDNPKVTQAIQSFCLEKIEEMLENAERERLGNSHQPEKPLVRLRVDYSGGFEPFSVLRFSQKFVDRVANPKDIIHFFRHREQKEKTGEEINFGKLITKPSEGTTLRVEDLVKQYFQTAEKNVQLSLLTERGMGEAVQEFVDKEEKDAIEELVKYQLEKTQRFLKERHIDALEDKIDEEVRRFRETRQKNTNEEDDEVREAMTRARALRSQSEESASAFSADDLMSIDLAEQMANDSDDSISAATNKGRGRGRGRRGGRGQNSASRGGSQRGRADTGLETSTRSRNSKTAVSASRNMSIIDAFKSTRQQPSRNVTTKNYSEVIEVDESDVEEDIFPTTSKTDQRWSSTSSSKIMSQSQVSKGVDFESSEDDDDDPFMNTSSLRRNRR
The experiment in a line: fluorescence polarization; no metal listed in buffer; apparent Kd, n=1; 10 mM Tris pH 8.0, 25 mM NaCl, 0.1% Tween20, 2 mM DTT; 10 nM DNA; temperature not stated, measured immediately. Conditions: protein: recombinant; tags: His tag (pNIC28-Bsa4), TEV protease treated; chain copies: 2; label: 5' FITC on TP423; 34 bp duplex (S1[1-34] with S2[1-34]); 3' overhangs 16 nt (S1) and 15 nt (S2).

In the next series the target is T2, TR-MRE11 (human, UniProt P49959 1-568, del569-708).
T2 sequence: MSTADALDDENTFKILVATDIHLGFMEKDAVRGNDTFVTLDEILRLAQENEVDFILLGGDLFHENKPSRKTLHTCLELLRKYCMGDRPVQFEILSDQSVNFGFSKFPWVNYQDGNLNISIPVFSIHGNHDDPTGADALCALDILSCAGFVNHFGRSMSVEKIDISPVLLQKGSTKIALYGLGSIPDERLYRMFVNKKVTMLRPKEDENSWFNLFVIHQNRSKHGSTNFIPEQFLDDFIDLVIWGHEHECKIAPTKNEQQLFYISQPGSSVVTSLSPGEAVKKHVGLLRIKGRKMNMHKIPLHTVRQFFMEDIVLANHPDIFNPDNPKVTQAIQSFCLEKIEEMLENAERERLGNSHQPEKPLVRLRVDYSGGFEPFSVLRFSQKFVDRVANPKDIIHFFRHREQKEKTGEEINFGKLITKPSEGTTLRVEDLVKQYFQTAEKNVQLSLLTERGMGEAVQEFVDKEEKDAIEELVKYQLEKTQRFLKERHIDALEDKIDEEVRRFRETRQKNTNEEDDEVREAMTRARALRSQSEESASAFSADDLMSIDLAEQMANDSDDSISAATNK
Description: fluorescence polarization; no metal listed in buffer; apparent Kd, n=1; 7-fold lower affinity than FL; 10 mM Tris pH 8.0, 25 mM NaCl, 0.1% Tween20, 2 mM DTT; 10 nM DNA; temperature not stated, measured immediately. As to conditions: protein: recombinant; tags: His-SUMO tag removed by SUMO protease; chain copies: 2; label: 5' FITC on TP423; 34 bp duplex (S1[1-34] with S2[1-34]); 3' overhangs 16 nt (S1) and 15 nt (S2).

B1: TP423/TP424 3'-overhang duplex (dsDNA)
DNA 1: CTGCAGGGTTTTTGTTCCAGTCTGTAGCACTGTGTAAGACAGGCCAGATC
DNA 2: CACAGTGCTACAGACTGGAACAAAAACCCTGCAGTACTCTACTCATCTC
For the molecule B1, the Kd was determined as 34.6 nM with FL-MRE11 and 242 nM in the series with TR-MRE11.
